# From patent KR20200072008A
# Residue numbers refer to the chain shown, from its start.
# B1: D3 (antibody, V domains shown)
# VH: EVQLEESGGGLVQPGGSLKLSCAASGFTFSNYGMSWVRQTPDKRLELVATINSNGGTTYYPDSVKGRFTISRDNAKNTLYLQMSSLKSEDSAMYYCARDRDAMDYWGQGTSVTVSS
# VL: DVLMTQTPLSLPVSLGDQASISCRSSQSIVNSHGNTYLEWYLQKPGQSPKLLIYKVSNRFSGVPDRFSGSGSGTDFTLKISRVEAEDLGVYYCFQGSHVPWTFGGGTKLEIK
# B2: B4 (antibody, V domains shown)
# VH: EVKLVESGGGLVKPGGSLKLSCAASGFTFSNYGMSWVRQTPEKRLEWVATISSGGSYTYYPDSVKGRFTISRDNAKNTLYLQMSSLRSEDTAMYYCARHEGGGNPYFDYWGQGTTLTVSS
# VL: B1 VL with I29L, N31H, H33N, E39H, Y92F, F94S, G96N, S97T, H98L
# B3: D2 (antibody, V domains shown)
# VH: DVKLQESGPGLVKPSQSLSLTCSVTGYSITSGYYWNWIRQFPGNKLEWMGYIRYDGSNNYNPSLKNRISITRDTSKNQFFLKLNSVTTEDTASYYCARDRDSSYYFDYWGQGTALTVSS
# VL: DIVMTQSSSYLSVSLGGRVTITCKASDHINNWLAWYQQKPGNAPRLLISDTTSLETGVPSRFSGSGSGKDYTLSITSLQTEDVATYYCQQYWSAPPTFGGGTKLEIK
# B4: C4 (antibody, V domains shown)
# VH: DVKLQESGPGLVKPSQSLSLTCTVTGYSITSDYAWNWIRQFPGNKLEWMGYISYSVGTRYNPSLKSRISITRDTSKNQFFLLLKSVTNEDTATYFCARKGEYGFAYWGQGTLVTVSA
# VL: DIVMTQSPASLAVSLGQRATISCRASKSVSTSGYSYMHWYQQKPGQPPKLLIYLASNLESGVPARFSGSGSGTDFTLNIHPVEEEDAATYYCQHSRELPLTFGAGTKLELK
# B5: C16 (antibody, V domains shown)
# VH: EVQLQQSGAELARPGASVQMSCKAFGYTFTNYTMHWVRQRPGQGLEWIGFINPSSDYTNYNQKFKDKATLSADKSSSTAYMQLSSLTSEDSAVYYCARRIFYNGRTYAAMDYWGQGTSVTVSS
# VL: B4 VL with T31S
# B6: C24 (antibody, V domains shown)
# VH: EVKLVESGGGLVQPKGSLKLSCAASGYTFNTYAMNWVRQAPGKGLEWVARIRSKSNNYTTYYADSVKDRFTISRDDSQSMLYLQINNLKTEDTAMYYCVGQILYYYVGSPAWFAYWGQGTLVTVSA
# VL: B4 VL with Y53F, L100W, A104G, L110I
# B7: C14 (antibody, V domains shown)
# VH: EVKLVESGGGLVQPKGSLKLSCAASGFTFNTNAMNWVRQAPGKGLEWVARIRSKSDNYATYYADSVKDRFTISRDDSPSMLYLQMNNLKTEDTAMYYCVYGRSYGGLGYWGQGTLVTVSA
# VL: B4 VL with M4L, M37V
# B8: C7 (antibody, V domains shown)
# VH: B7 VH with E1Q, K3Q, S7T, D56N, P78Q, M80L, G108S
# VL: B4 VL with T31S
# Target: GST-SNAP25 197 (UniProt P60880)
# Sequence (P60880 1-197 limits assumed): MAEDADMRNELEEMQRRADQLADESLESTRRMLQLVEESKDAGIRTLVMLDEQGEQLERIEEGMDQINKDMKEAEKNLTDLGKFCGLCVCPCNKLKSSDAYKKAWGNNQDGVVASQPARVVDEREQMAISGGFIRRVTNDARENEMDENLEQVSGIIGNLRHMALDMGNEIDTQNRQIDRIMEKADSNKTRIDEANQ
# Test: not given
row,Binder,A450 with SNAP25 197
1,B1,1.62
2,B2,1.8
3,B3,0.048
4,B4,0.919
5,B5,0.996
6,B6,0.973
7,B7,0.953
8,B8,1.2

# Target: GST-SNAP25 FL (UniProt P60880)
# Sequence (P60880 whole entry): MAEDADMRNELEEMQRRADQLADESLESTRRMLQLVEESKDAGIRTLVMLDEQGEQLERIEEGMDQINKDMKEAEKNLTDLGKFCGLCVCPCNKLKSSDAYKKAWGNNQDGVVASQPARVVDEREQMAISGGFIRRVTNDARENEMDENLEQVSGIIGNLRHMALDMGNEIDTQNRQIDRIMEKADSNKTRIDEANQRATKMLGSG
# Test: not given
row,Binder,A450 with SNAP25 FL
1,B1,0.125
2,B2,2.16
3,B3,1.45
4,B4,0.001
5,B5,0.001
6,B6,0.001
7,B7,0.001
8,B8,0.001

# Target: GST-SNAP25 197 (UniProt P60880)
# Test: direct ELISA; A450 on GST-SNAP25 197 divided by A450 on GST-SNAP25 FL
row,Binder,Ratio 197/206
1,B1,12.9
2,B2,0.83
3,B3,0.03
4,B4,919
5,B5,996
6,B6,973
7,B7,953
8,B8,1040
